Measured values taken from US9023343B2, “Phosphorylation-inhibiting agent or dephosphorylating agent for PTEN” (Miyazaki Prefecture, priority 2009, dated 2015).

How the values were obtained:
NDRG2 = target: T1, NDRG2 (Homo sapiens, UniProt Q9UN36); details: read-out: IC50 for enzymatic activity of NDRG2; concentration of NDRG2 protein 25 ng/ul
T1 sequence (Q9UN36 1-357 isoform Q9UN36-2): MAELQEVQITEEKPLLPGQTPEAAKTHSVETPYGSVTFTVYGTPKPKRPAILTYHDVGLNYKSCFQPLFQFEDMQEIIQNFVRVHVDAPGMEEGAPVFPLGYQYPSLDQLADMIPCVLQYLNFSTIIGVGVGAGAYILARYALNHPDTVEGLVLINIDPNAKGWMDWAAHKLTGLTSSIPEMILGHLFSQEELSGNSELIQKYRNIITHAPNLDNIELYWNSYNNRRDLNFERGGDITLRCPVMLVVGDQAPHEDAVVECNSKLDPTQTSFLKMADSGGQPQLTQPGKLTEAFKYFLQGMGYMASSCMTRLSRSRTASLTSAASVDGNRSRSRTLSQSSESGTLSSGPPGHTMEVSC
Method: The GST-NDRG2 protein (10 ng to 250 ng) was added to a reaction solution (pH 5.0) consisting of 100 mM sodium acetate, 0.8 mM DTT, and 10 mM pNPP, and the mixture was allowed to react at 30° C. for 10 minutes. After addition of 500 μl of 5 M NaGH, the reaction was stopped and OD 410 nm of the absorption wavelength for pNP (p-Nitrophenol) was measured. A standard curve was prepared at a concentration of 0.2 to 1.6 nmol of pNP, and an enzyme activity was determined by converting the absorbance into the concentration of pNP.

PTEN = target: T2, PTEN (Homo sapiens, UniProt P60484); assay: In vitro dephosphorylation of FLAG-PTEN purified from ATL cell line Su9T-01, Western blot; type: biochemical; details: 10 ng/ml FLAG-PTEN, 30° C., 30 minutes; phosphorylation-specific anti-PTEN antibodies
T2 construct: made in house; host or cells: ATL cell line Su9T-01, transfected with PTEN/pCMV26; purified on anti-FLAG M2 gel
Method: ATL cell line Su9T-01 of 1×10^7 cells were transfected with 20 μg of PTEN/pCMV26 expression vector by electroporation. On day 2 after the transfection, the cells were collected and 500 μl of RIPA buffer solution was added to prepare a cell extract solution. […] The reaction solution was washed with PBS buffer solution, and eluted with 3×FLAG peptide (100 μg/ml).
A reaction solution composed of 25 ng of GST or GST-NDRG2 or one unit of bacterial alkaline phosphatase (BAP) (TAKARA) was reacted with a reaction solution consisting of 20 mM magnesium acetate, 300 μg/mL BSA, 30 μM EDTA, 0.03% β-mercaptoethanol, and 10 ng/ml FLAG-PTEN at 30° C. for 30 minutes. Phosphorylation state of PTEN was analyzed by the Western blot method using anti-PTEN antibodies specific to each phosphorylation.

[1] = pNPP (p-nitrophenyl phosphate) assay of phosphatase activity; type: biochemical; details: pH 5.0, 10 mM pNPP, 30° C., 10 minutes
Method: The GST-NDRG2 protein (10 ng to 250 ng) was added to a reaction solution (pH 5.0) consisting of 100 mM sodium acetate, 0.8 mM DTT, and 10 mM pNPP, and the mixture was allowed to react at 30° C. for 10 minutes. After addition of 500 μl of 5 M […], the reaction was stopped and OD 410 nm of the absorption wavelength for pNP (p-Nitrophenol) was measured. A standard curve was prepared at a concentration of 0.2 to 1.6 nmol of pNP, and an enzyme activity was determined by converting the absorbance into the concentration of pNP.

T2 sequence (P60484 whole entry): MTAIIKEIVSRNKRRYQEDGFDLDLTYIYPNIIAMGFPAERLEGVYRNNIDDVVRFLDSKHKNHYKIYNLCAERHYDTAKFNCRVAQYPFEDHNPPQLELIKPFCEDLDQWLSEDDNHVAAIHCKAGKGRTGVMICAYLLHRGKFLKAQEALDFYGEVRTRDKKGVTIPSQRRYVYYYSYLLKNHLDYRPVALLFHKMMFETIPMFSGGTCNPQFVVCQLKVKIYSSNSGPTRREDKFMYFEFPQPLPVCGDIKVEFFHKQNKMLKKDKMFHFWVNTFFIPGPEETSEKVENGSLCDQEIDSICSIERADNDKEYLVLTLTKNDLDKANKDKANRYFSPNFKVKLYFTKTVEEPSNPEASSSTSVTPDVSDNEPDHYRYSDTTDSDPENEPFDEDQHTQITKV

Compound	IC50 (NDRG2) [µM]	dephosphorylation of PTEN (PTEN)	production of pNP (phosphatase activity) [1]
[F-].[Na+] [sodium fluoride]	0.383	–	–
BAP: bacterial alkaline phosphatase (TAKARA), positive control	–	dephosphorylation effects were recognized	–
GST: Glutathione S-Transferase protein, negative control	–	not recognized	not observed
